# Experimental data taken from paper PMC3846777, “Characteristics and Function of Sulfur Dioxygenase in Echiuran Worm Urechis unicinctus” (PLoS ONE, 2013).
# Changes are numbered by the printed parent chain. In names and notes the source's numbering stands.
# B1: Del-2 (Urechis unicinctus) (protein)
# chain: MLSSVCGSLRRTLCNGSVLASKHPFLGRSNALKLETKPVCTRVMYRSYSANMHGQEVVFRQLFDNTSFTYTYLLGDAASKEAVLIDPVIELVDRDVRIVKELGLNLKYAVNTHVHADHVTGTGEIKKRIPTCKSVIAECSQAKADVFINEGDGIEFGQF
# notes: C-terminally truncated SDO, 477 bp from the start codon (159 residues, end calculated from printed size)
# B2: Del-1 (Urechis unicinctus) (protein)
# chain: MLSSVCGSLRRTLCNGSVLASKHPFLGRSNALKLETKPVCTRVMYRSYSANMHGQEVVFRQLFDNTSFTYTYLLGDAASKEAVLIDPVIELVDRDVRIVKELGLNL
# notes: C-terminally truncated SDO, 318 bp from the start codon (106 residues, end calculated from printed size), lacks all metal sites
# B3: U. unicinctus SDO (complete ORF, wild type) (Urechis unicinctus; D117E/H118A) (protein)
# chain: MLSSVCGSLRRTLCNGSVLASKHPFLGRSNALKLETKPVCTRVMYRSYSANMHGQEVVFRQLFDNTSFTYTYLLGDAASKEAVLIDPVIELVDRDVRIVKELGLNLKYAVNTHVHAEAVTGTGEIKKRIPTCKSVIAECSQAKADVFINEGDGIEFGQFKLECRSTPGHTDGCFTYVWHEKGMAFTGDALLIRGCGRTDFQQGSSEALYKSVHGKILSLPEQFILYPAHDYTGQTSTTVREEKNHNPRLTKPIDVFIRIMSELNLPYPKQLDRALPANMVCGIFDTESPPSKS
# B4: U. unicinctus SDO (complete ORF, wild type) (Urechis unicinctus) (protein)
# chain: B3 chain with E117D, A118H
# B5: Del-4 (Urechis unicinctus) (protein)
# chain: MLSSVCGSLRRTLCNGSVLASKHPFLGRSNALKLETKPVCTRVMYRSYSANMHGQEVVFRQLFDNTSFTYTYLLGDAASKEAVLIDPVIELVDRDVRIVKELGLNLKYAVNTHVHADHVTGTGEIKKRIPTCKSVIAECSQAKADVFINEGDGIEFGQFKLECRSTPGHTDGCFTYVWHEKGMAFTGDALLIRGCGRTDFQQGSSEALYKSVHGKILSLPEQFILYPAHDYTGQTSTTVREEKNHNPRLTKPI
# notes: C-terminally truncated SDO, 759 bp from the start codon
# B6: Del-3 (Urechis unicinctus) (protein)
# chain: MLSSVCGSLRRTLCNGSVLASKHPFLGRSNALKLETKPVCTRVMYRSYSANMHGQEVVFRQLFDNTSFTYTYLLGDAASKEAVLIDPVIELVDRDVRIVKELGLNLKYAVNTHVHADHVTGTGEIKKRIPTCKSVIAECSQAKADVFINEGDGIEFGQFKLECRSTPGHTDGCFTYVWHEKGMAFTGDALLIRGCGRTDFQQGSS
# notes: C-terminally truncated SDO, 615 bp from the start codon (205 residues, end calculated from printed size)
# Key:
# Test in all cases: oxygen consumption, Clark-type oxygen electrode (Oxytherm)
# Assay type in all cases: biochemical, Urechis unicinctus
# Conditions in all cases: 0.1 M potassium phosphate pH 7.4, 25°C, O2 co-substrate, GSS^− prepared from GSH and acetonic sulfur
# [1] = substrate: N[C@@H](CCC(=O)N[C@@H](CSS)C(=O)NCC(=O)O)C(=O)O
# Source text: oxygen consumption, Clark-type oxygen electrode (Oxytherm) on Del-2
# [2] = substrate: N[C@@H](CCC(=O)N[C@@H](CSS)C(=O)NCC(=O)O)C(=O)O; remark: listed apart in the source
# Source text: oxygen consumption, Clark-type oxygen electrode (Oxytherm) on Del-1
# [3] = substrate: N[C@@H](CCC(=O)N[C@@H](CSS)C(=O)NCC(=O)O)C(=O)O; remark: listed apart in the source
# [4] = substrate: N[C@@H](CCC(=O)N[C@@H](CSS)C(=O)NCC(=O)O)C(=O)O; remark: listed apart in the source
# Source text: oxygen consumption, Clark-type oxygen electrode (Oxytherm) on U. unicinctus SDO (complete ORF, wild type)
# [5] = substrate: N[C@@H](CCC(=O)N[C@@H](CSS)C(=O)NCC(=O)O)C(=O)O; remark: listed apart in the source
# Source text: oxygen consumption, Clark-type oxygen electrode (Oxytherm) on Del-4
# [6] = substrate: N[C@@H](CCC(=O)N[C@@H](CSS)C(=O)NCC(=O)O)C(=O)O; remark: listed apart in the source
# Source text: oxygen consumption, Clark-type oxygen electrode (Oxytherm) on Del-3
protein,measurement,setting,value
B1,Km,[1],137.0 ± 17.2 µM
same,Vmax,[1],0.42 ± 0.024 µmol/min/mg
same,kcat,[1],0.16 s⁻¹
B2,Km,[2],218.9 ± 33.5 µM
same,Vmax,[2],0.33 ± 0.014 µmol/min/mg
same,kcat,[2],0.09 s⁻¹
B3,Km,[3],174.4 ± 16.8 µM
B4,Km,[4],82.5 ± 9.9 µM
same,Vmax,[4],1.74 ± 0.081 µmol/min/mg
same,kcat,[4],1.09 s⁻¹
B5,Km,[5],83.0 ± 10.9 µM
same,Vmax,[5],1.23 ± 0.063 µmol/min/mg
same,kcat,[5],0.68 s⁻¹
B6,Km,[6],104.6 ± 16.7 µM
same,Vmax,[6],0.98 ± 0.065 µmol/min/mg
same,kcat,[6],0.45 s⁻¹
